{"source": "IntAct's records for PubMed 28712572"}
{"target": "gbrap_human GABARAP (UniProt O95166)", "sequence (O95166 whole entry)": "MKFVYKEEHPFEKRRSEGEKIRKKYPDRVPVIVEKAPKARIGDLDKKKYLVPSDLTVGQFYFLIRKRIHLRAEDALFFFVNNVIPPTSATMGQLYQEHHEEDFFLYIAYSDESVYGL"}
{"substance": "Pericentriolar material 1 protein (Homo sapiens), Q15154 Q1956G", "effect of a mutation on the interaction": "with no effect"}
{"substance": "Pericentriolar material 1 protein (Homo sapiens), Q15154 Q1956H", "effect of a mutation on the interaction": "with no effect"}
{"substance": "Pericentriolar material 1 protein (Homo sapiens), Q15154 Q1956I", "effect of a mutation on the interaction": "with no effect"}
{"substance": "Pericentriolar material 1 protein (Homo sapiens), Q15154 Q1956K", "effect of a mutation on the interaction": "with no effect"}
{"substance": "Pericentriolar material 1 protein (Homo sapiens), Q15154 Q1956L", "effect of a mutation on the interaction": "with no effect"}
{"substance": "Pericentriolar material 1 protein (Homo sapiens), Q15154 Q1956M", "effect of a mutation on the interaction": "with no effect"}
{"substance": "Pericentriolar material 1 protein (Homo sapiens), Q15154 Q1956N", "effect of a mutation on the interaction": "with no effect"}
{"substance": "Pericentriolar material 1 protein (Homo sapiens), Q15154 Q1956P", "effect of a mutation on the interaction": "with no effect"}
{"substance": "Pericentriolar material 1 protein (Homo sapiens), Q15154 Q1956R", "effect of a mutation on the interaction": "with no effect"}
{"substance": "Pericentriolar material 1 protein (Homo sapiens), Q15154 Q1956S", "effect of a mutation on the interaction": "with no effect"}
{"substance": "Pericentriolar material 1 protein (Homo sapiens), Q15154 Q1956T", "effect of a mutation on the interaction": "with no effect"}
{"substance": "Pericentriolar material 1 protein (Homo sapiens), Q15154 Q1956V", "effect of a mutation on the interaction": "with no effect"}
{"substance": "Pericentriolar material 1 protein (Homo sapiens), Q15154 Q1956W", "effect of a mutation on the interaction": "with no effect"}
{"substance": "Pericentriolar material 1 protein (Homo sapiens), Q15154 Q1956Y", "effect of a mutation on the interaction": "with no effect"}
{"substance": "Pericentriolar material 1 protein (Homo sapiens), Q15154 S1955A", "effect of a mutation on the interaction": "with no effect"}
{"substance": "Pericentriolar material 1 protein (Homo sapiens), Q15154 S1955C", "effect of a mutation on the interaction": "with no effect"}
{"substance": "Pericentriolar material 1 protein (Homo sapiens), Q15154 S1955D", "effect of a mutation on the interaction": "with no effect"}
{"substance": "Pericentriolar material 1 protein (Homo sapiens), Q15154 S1955E", "effect of a mutation on the interaction": "with no effect"}
{"substance": "Pericentriolar material 1 protein (Homo sapiens), Q15154 S1955F", "effect of a mutation on the interaction": "with no effect"}
{"substance": "Pericentriolar material 1 protein (Homo sapiens), Q15154 S1955G", "effect of a mutation on the interaction": "with no effect"}
{"substance": "Pericentriolar material 1 protein (Homo sapiens), Q15154 S1955H", "effect of a mutation on the interaction": "with no effect"}
{"substance": "Pericentriolar material 1 protein (Homo sapiens), Q15154 S1955I", "effect of a mutation on the interaction": "with no effect"}
{"substance": "Pericentriolar material 1 protein (Homo sapiens), Q15154 S1955K", "effect of a mutation on the interaction": "with no effect"}
{"substance": "Pericentriolar material 1 protein (Homo sapiens), Q15154 S1955L", "effect of a mutation on the interaction": "with no effect"}
{"substance": "Pericentriolar material 1 protein (Homo sapiens), Q15154 S1955M", "effect of a mutation on the interaction": "with no effect"}
{"substance": "Pericentriolar material 1 protein (Homo sapiens), Q15154 S1955N", "effect of a mutation on the interaction": "with no effect"}
{"substance": "Pericentriolar material 1 protein (Homo sapiens), Q15154 S1955P", "effect of a mutation on the interaction": "with no effect"}
{"substance": "Pericentriolar material 1 protein (Homo sapiens), Q15154 S1955Q", "effect of a mutation on the interaction": "with no effect"}
{"substance": "Pericentriolar material 1 protein (Homo sapiens), Q15154 S1955R", "effect of a mutation on the interaction": "with no effect"}
{"substance": "Pericentriolar material 1 protein (Homo sapiens), Q15154 S1955T", "effect of a mutation on the interaction": "with no effect"}
{"substance": "Pericentriolar material 1 protein (Homo sapiens), Q15154 S1955V", "effect of a mutation on the interaction": "decreasing interaction strength"}
{"substance": "Pericentriolar material 1 protein (Homo sapiens), Q15154 S1955W", "effect of a mutation on the interaction": "with no effect"}
{"substance": "Pericentriolar material 1 protein (Homo sapiens), Q15154 S1955Y", "effect of a mutation on the interaction": "with no effect"}
{"substance": "Pericentriolar material 1 protein (Homo sapiens), Q15154 S1958A", "effect of a mutation on the interaction": "with no effect"}
{"substance": "Pericentriolar material 1 protein (Homo sapiens), Q15154 S1958C", "effect of a mutation on the interaction": "with no effect"}
{"substance": "Pericentriolar material 1 protein (Homo sapiens), Q15154 S1958D", "effect of a mutation on the interaction": "with no effect"}
{"substance": "Pericentriolar material 1 protein (Homo sapiens), Q15154 S1958E", "effect of a mutation on the interaction": "with no effect"}
{"substance": "Pericentriolar material 1 protein (Homo sapiens), Q15154 S1958F", "effect of a mutation on the interaction": "with no effect"}
{"substance": "Pericentriolar material 1 protein (Homo sapiens), Q15154 S1958G", "effect of a mutation on the interaction": "with no effect"}
{"substance": "Pericentriolar material 1 protein (Homo sapiens), Q15154 S1958H", "effect of a mutation on the interaction": "with no effect"}
{"substance": "Pericentriolar material 1 protein (Homo sapiens), Q15154 S1958I", "effect of a mutation on the interaction": "with no effect"}
{"substance": "Pericentriolar material 1 protein (Homo sapiens), Q15154 S1958K", "effect of a mutation on the interaction": "with no effect"}
{"substance": "Pericentriolar material 1 protein (Homo sapiens), Q15154 S1958L", "effect of a mutation on the interaction": "with no effect"}
{"substance": "Pericentriolar material 1 protein (Homo sapiens), Q15154 S1958M", "effect of a mutation on the interaction": "with no effect"}
{"substance": "Pericentriolar material 1 protein (Homo sapiens), Q15154 S1958N", "effect of a mutation on the interaction": "with no effect"}
{"substance": "Pericentriolar material 1 protein (Homo sapiens), Q15154 S1958P", "effect of a mutation on the interaction": "with no effect"}
{"substance": "Pericentriolar material 1 protein (Homo sapiens), Q15154 S1958Q", "effect of a mutation on the interaction": "with no effect"}
{"substance": "Pericentriolar material 1 protein (Homo sapiens), Q15154 S1958R", "effect of a mutation on the interaction": "with no effect"}
{"substance": "Pericentriolar material 1 protein (Homo sapiens), Q15154 S1958T", "effect of a mutation on the interaction": "with no effect"}
{"substance": "Pericentriolar material 1 protein (Homo sapiens), Q15154 S1958V", "effect of a mutation on the interaction": "with no effect"}
{"substance": "Pericentriolar material 1 protein (Homo sapiens), Q15154 S1958W", "effect of a mutation on the interaction": "with no effect"}
